According to PMC8016844, “Grb2 binding induces phosphorylation-independent activation of Shp2” (Communications Biology, 2021):

Biological target: T1, Shp2 N-terminal SH2 domain (Shp2_(NSH2)) (UniProt Q06124 6-102)
T1 construct: Shp2 (PTPN11), N-terminal SH2 domain; Atto 488 labelled in MST; uniformly 15N-labelled in the NMR titration; Perturbed residues up to Y100 are named, so the construct reaches at least residue 100; also called Shp2-NSH2 domain; source: E. coli BL21 (DE3), pET28b, purified (Talon buffers, Superdex SD75)
T1 sequence (looked up): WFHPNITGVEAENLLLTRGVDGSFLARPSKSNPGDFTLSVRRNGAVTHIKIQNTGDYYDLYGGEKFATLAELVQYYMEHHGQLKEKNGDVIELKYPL
Assay: MST; target protein labelled with Atto 488 NHS ester, 100 nM; unlabelled ligand serially diluted; Monolith NT.115; 25 °C; 20 mM HEPES pH 7.5, 150 mM NaCl, 0.5 mM TCEP, 0.005% Tween 20
Conditions: both partners purified

B1: isolated NSH3 domain of Grb2 (Grb2_(NSH3)) (domain or fragment)
chain: MEAIAKYDFKATADDELSFKRGDILKVLNEECDQNWYKAELNGKDGFIPKNYIEMKPH
Kd: 422 ± 21.5 µM
